Results as given in publication PMC11373624, “Development and preclinical characterization of a novel radiotheranostic EphA2-targeting bicyclic peptide” (Theranostics, 2024).
Numbered stars: 1 amine (or outer) side, 2 acyl side, 3 side chain; on linkers, the order of the positions; unused ones are H or OH. Bridge positions count the residues as written; N and C are the ends. Square brackets hold non-standard residues; d marks the D form. Peptide text beside a SMILES is read from it. * marks the point of attachment. DOTA = O=C(O)CN1CCN(CC(=O)O)CCN(CC(=O)*)CCN(CC(=O)O)CC1; TATA = O=C(CC[*:1])N1CN(C(=O)CC[*:2])CN(C(=O)CC[*:3])C1; Hyp = O=C(O)[C@@H]1C[C@@H](O)CN1; hArg = N=C(N)NCCCC[C@H](N)C(=O)O; Cba = N[C@@H](CC1CCC1)C(=O)O; βAla = NCCC(=O)O; Sar = CNCC(=O)O

Experiments:
in vivo = settings: male, athymic nude, mouse
Protocol: (§1) SPECT/CT imaging was performed in three 5- to 8-week-old male athymic nude mice (Janvier Labs, UK) which were subcutaneously inoculated on the right upper flank with 5 x 10^6 PC-3 cells (1:1 in PBS:Matrigel). Tumor growth was monitored, and once size was approx. 200 - 500 mm^3, mice were injected intravenously via tail vein with 230 pmol of [^111In]In-BCY18469 (5.3 ± 0.2 MBq). Mice were imaged under isoflurane anesthesia using whole-body static SPECT followed by a CT at each timepoint (30 min SPECT scan time starting at 1h and 24h p.i.). Reconstructed images were generated in units of activity. Namely, the values assigned to the voxels (volume elements) comprising the 3D reconstructed SPECT images were in units of MBq or equivalent. Reconstructed images were processed with VivoQuant (Invicro). Whole body maximum intensity projection (MIP) images were generated using VivoQuant.

PC-3 tumor xenograft = assay: in vivo; settings: male, athymic nude, mouse
Protocol: as §1

[1] = total radioactivity, Liver uptake

CC(C)C[C@@H]1NC(=O)[C@@H]2CSCCC(=O)N3CN(CN(C3)C(=O)CCSC[C@H](NC(=O)[C@H](CC(=O)O)NC(=O)[C@H](CCCCNC(=N)N)NC(=O)[C@H](C)NC(=O)CN(C)C(=O)CN(C)C(=O)CN(C)C(=O)CN(C)C(=O)CN(C)C(=O)CN(C)C(=O)CN(C)C(=O)CN(C)C(=O)CN(C)C(=O)CN(C)C(=O)CCNC(=O)CN3CCN(CC(=O)O)CCN(CC(=O)O)CCN(CC(=O)O)CC3)C(=O)N3C[C@H](O)C[C@H]3C(=O)N[C@@H](CC3CCC3)C(=O)N[C@@H](C(C)C)C(=O)N[C@@H](CC(N)=O)C(=O)N3CCC[C@H]3C(=O)N[C@@H](CC(C)C)C(=O)N2)C(=O)CCSC[C@@H](C(N)=O)NC(=O)[C@H](CCCCNC(=N)N)NC(=O)[C@H](Cc2c[nH]c3ccccc23)NC(=O)[C@@H](CC(=O)O)NC(=O)[C@@H]2CCCN2C(=O)[C@H](Cc2c[nH]cn2)NC1=O [[111In]In-BCY18469, metal not drawn] ({DOTA-βAla}-[Sar][Sar][Sar][Sar][Sar][Sar][Sar][Sar][Sar][Sar]A[hArg]DC[Hyp][Cba]VNPLCLHP[dD]W[hArg]C-NH2; linker 14-21-28 via TATA)
tissue uptake at 1 h (in vivo; Bladder uptake): 207 %ID/g
tissue uptake at 24 h (in vivo; Bladder uptake): 4.2 %ID/g
tissue uptake at 1 h (in vivo; Heart uptake): 0.03 %ID/g
tissue uptake at 24 h (in vivo; Heart uptake): 0.03 %ID/g
tissue uptake at 1 h (in vivo; Kidneys uptake): 32 %ID/g
tissue uptake at 24 h (in vivo; Kidneys uptake): 17 %ID/g
tissue uptake at 24 h (in vivo; Lungs uptake): 0.01 %ID/g
tissue uptake at 1 h (in vivo; Muscle uptake): 0.27 %ID/g
tissue uptake at 24 h (in vivo; Muscle uptake): 0.02 %ID/g
tissue uptake at 1 h (in vivo; Spleen uptake): 0.27 %ID/g
tissue uptake at 24 h (in vivo; Spleen uptake): 0.4 %ID/g
tissue uptake at 1 h (in vivo; Tail uptake): 0.28 %ID/g
tissue uptake at 24 h (in vivo; Tail uptake): 0.07 %ID/g
tissue uptake at 24 h (in vivo; Tumor uptake): 2.3 %ID/g
tissue uptake at 1 h (in vivo; [1]): 0.13 %ID/g
tissue uptake at 24 h (in vivo; [1]): 0.05 %ID/g
tissue uptake at 1 h (in vivo; total radioactivity, Lungs uptake): 0.12 %ID/g
tissue uptake (in vivo; total radioactivity, Non-target organs uptake): ≤ 1 %ID/g
tissue uptake at 1 h (in vivo; total radioactivity, Tumor uptake): 5.7 ± 1.5 %ID/g
Kidneys uptake (PC-3 tumor xenograft; 1 h): 31.9 ± 3.4 %ID/g
Tumor uptake (PC-3 tumor xenograft; 1 h): 5.72 ± 1.47 %ID/g
Tumor uptake (PC-3 tumor xenograft; 24 h): 2.32 ± 0.50 %ID/g
